# Reference: US20140056903A1 (Regeneron, published 2014)
# Assays:
# [1] = biological target: T1, human GFRα3 expressed with a C-terminal myc-myc-hexahistidine tag (human, UniProt O60609 32-374, biotinylated (sites not given) in ELISA format 2 and in the Octet cross-competition; not in SPR); experiment: Octet cross-competition; biotin-hGFRα3-mmH pre-saturated with first antibody H4H2350P
# T1 construct: also called hGFRα3-mmh; hGFRα3-mmH
# Procedure: (§1) A cross-competition assay was conducted to assess the ability of select antibodies to compete with one another for binding to human GFRα3 using an Octet RED384 biosensor (Fortebio Inc.). The entire experiment was performed at 25° C. with the flow rate of 1000 rpm in Octet HBST buffer (0.01 M HEPES pH7.4, 0.15M NaCl, 3 mM EDTA, 0.05% v/v Surfactant P20, 0.1 mg/mL BSA). To assess whether 2 antibodies were able to compete with one another for binding to their respective epitopes on biotinylated recombinant human GFRα3 expressed with a C-terminal myc-myc-hexahistidine tag (biotin-hGFRα3-mmH; SEQ ID:370), around ˜1.2 nm of biotin-hGFRα3-mmH was first captured onto streptavidin-coated Octet sensor tips (Fortebio Inc, #18-5019) by submerging the tips for 1 minute into a 10 μg/mL solution of biotin-hGFRα3-mmH. The antigen coated sensor tips were then placed into wells containing 25 μg/mL solution of a first anti-GFRα3 monoclonal antibody for 4 minutes to saturate the biotin-hGFRα3-mmH surface. The sensor tips were then subsequently dipped into wells containing 25 μ/mL solution of a second anti-GFRα3 monoclonal antibody. The sensor tips were washed in Octet HBST buffer in between every step of the experiment. The real-time binding response was monitored during the course of the experiment and the binding response at the end of every step was recorded as shown in FIG. 9. The response of mAb-2 binding to biotin-hGFRα3-mmH pre-complexed with the first antibody was compared and competitive/non-competitive behavior of different anti-GFRα3 monoclonal antibodies was determined.
# [2] = biological target: T1, human GFRα3 expressed with a C-terminal …; experiment: Octet cross-competition; biotin-hGFRα3-mmH pre-saturated with first antibody H4H2243N2
# Procedure: as §1
# [3] = biological target: T1, human GFRα3 expressed with a C-terminal …; experiment: blocking ELISA 2, biotin-hGFRα3-mmH to coated hARTEMIN-mmH + hRET-10His
# Procedure: The equilibrated sample solutions were then transferred to the hARTEMIN-mmH-coated plate. […] Absorbance was recorded at 450 nm on a Victor X5 plate reader (Perkin Elmer) to determine the amount of free hGFRα3-hFc in the pre-equilibrated hGFRα3-hFc-antibody solutions that was able to bind to the plate coated with hARTEMIN-mmH. IC₅₀ values, defined as the concentration of antibody required to reduce the signal from a constant concentration of hGFRα3-hFc by 50%, were calculated from the data using Prism software from GraphPad. The absorbance measured at the constant amount of 120 pM hGFRα3-hFc in the absence of anti-GFRα3 antibody is defined as 0% blocking and the absorbance with no added hGFRα3-hFc is defined as 100% blocking. The observed absorbance in the wells containing the highest antibody concentration was used to calculate the maximum blocking percent shown in the table.
# In the second ELISA format, the plates, samples and data were processed similarly as for the first format except both hARTEMIN-mmH and human RET with a C-terminal 10 histidine tag (hRET-10His; R&D Systems, #1168-CR/CF) were coated for the blocking ELISA experiment. The 96-well microtiter plates were coated with a mixture of 1.2 ug/ml hARTEMIN-mmH and 6.9 ug/ml hRET-10His proteins in PBS overnight at 4° C. and then blocked with a solution of 0.5% (w/v) BSA. A constant amount of biotinylated human GFRα3 with a C-terminal myc-myc-hexahistidine tag (biotin-hGFRα3-mmH; SEQ ID:370) at 1 nM was pre-mixed with varied amounts of anti-GFRα3 antibodies, ranging from 0 to ˜100 nM in serial dilutions, followed by a 1 hour incubation at RT to allow antibody-biotin-hGFRα3-mmH binding to reach equilibrium. The equilibrated samples were then transferred to the coated plate. After 1 hour of binding, the plate was washed, then the bound biotin-hGFRα3-mmH was detected using HRP conjugated streptavidin (Pierce, #N200), and colorimetric signals were developed using TMB HRP substrates.
# [4] = biological target: T1, human GFRα3 expressed with a C-terminal …; experiment: Octet cross-competition; biotin-hGFRα3-mmH pre-saturated with first antibody H4H2357S
# Procedure: as §1
# [5] = biological target: T2, human GFRα1 expressed with only a C-terminal human Fc tag (human); experiment: BLI Octet, antigen on anti-hFc tips, 100 ug/mL Ab
# T2 construct: also called hGFRα1-hFc
# Procedure: (§2) The ability of anti-GFRα3 antibodies to bind to GDNF-family receptors was assessed using an Octet Red biosensor (Fortebio, Inc.). Antibodies were tested for binding to either human GFRα1 expressed with a C-terminal human Fc tag and a hexahistidine tag (hGFRα1-hFc-6His, R&D Systems #714-GR), human GFRα1 expressed with only a C-terminal human Fc tag (hGFRα1-hFc; SEQ ID: 376), human GFRα2 expressed with a C-terminal human Fc tag and a hexahistidine tag (hGFRα2-hFc-6His, R&D Systems #613-FR), human GFRα3 expressed with a C-terminal human Fc tag (hGFRα3-hFc, SEQ ID:371), or an irrelevant human Fc tagged protein. Antigens were captured onto anti-human Fc sensor tips from 10 ug/mL solutions for 5 minutes. The coated sensor tips were then blocked with a 100 ug/mL solution of irrelevant human Fc antibodies for 5 minutes. Blocked sensor tips were then submerged into wells containing […] of each anti-GFRα3 antibody or buffer alone for 10 minutes. The experiment was performed at 25° C. with a flow rate of 1000 rpm using HBST+BSA buffer (10 mM HEPES, 150 mM NaCl, 3 mM EDTA, 0.05% w/v Surfactant P20, 0.1 mg/mL BSA, pH 7.4). The binding response (measured in units of nm) at each step of the experiment was monitored and recorded.
# [6] = biological target: T3, irrelevant human Fc tagged protein; experiment: BLI Octet, antigen on anti-hFc tips, 100 ug/mL Ab
# T3 construct: negative control antigen; also called Irrelevant hFc tagged protein
# Procedure: as §2
Binder,binding response of second antibody (nm) [1] [nm],binding response of second antibody (nm) [2] [nm],% max blocking [3] [%],IC50 [3] [nM],binding response of second antibody (nm) [4] [nm],Bound (nm) [5] [nm],Bound (nm) [6] [nm]
"H4H2350P (antibody, human IgG4, V domains shown, human IgG4 Fc (H4H)) VH: QVQLQESGPGLVKPSETLSLTCTVSGGSISTYYWSWFRQPPGKGLEWIGYIYYSGSTNHNPSLKSRVTISVDTSKNQFSLKLRSVTAADTAVYYCARVGPVGWGSWGNFDYWGQGTLVTVSS VL: DIQLTQSPSFLSASVGDRVTITCWASQGISSYLAWSQQKPGKAPKLLIYAASTLQSGVPSRFSGSGSGTEFTLTISSLQPEDFATYYCQQLNSYPWTFGQGTKVEIK",0.25,1.2,91,1.29,1.35,,
"H4H2291S (antibody, human IgG4, V domains shown, human IgG4 Fc (H4H)) VH: EVQLVESGGGLVQPGESLRLSCAASGFTFSNYAMSWVRQAPGKGLEWVSVISGSGGSTYYADSVKGRFTMSRDNSKNTLYLQMNSLRAEDTAVYYCAKPPSRAARYFNYGMDVWGQGTTVTVSS VL: AIRMTQSPSSVSASVGDRVTITCRASQGISSWLAWYQQKPGKAPKLLIYAASSLQSGVPSRFSGSGSGTDFTLTISSLQPEDFATYYCQQANSFPFTFGGGTKVEIK",2.57,0.52,,,0.18,,
"H4H2357S (antibody, human IgG4, V domains shown, human IgG4 Fc (H4H)) VH: EVQLVESGGGLVQPGGSLRLSCAASTFTFSSYAMTWVRQAPGKGLEWVSSISGSGDSTYYADSVKGRFTISRDNSKNTLFLQMNSLRAEDTAVYYCAKKDGPGRYYVRYGMDVWGQGTTVTVSS VL: DIQMTQSPSSVSASVGDRVTITCRASQGISSWLAWYQQKPGKAPKLLIYTTSSLQSGVPSRFSGSGSGTDFTLTISSLQPEDFATYYCQQANSFPLTFGGGTKVDIK",2.23,0.32,86,3.28,0.04,,
"H4H2296S (antibody, human IgG4, V domains shown, human IgG4 Fc (H4H)) VH: not shown VL: DIVMTQSPSSVSASVGDRVTITCRASQGISSWLAWYQQKPGKAPKLLIYAASSLRSGVPSRFSGSGSGTDFTLTITSLQPEDFATYYCQHTNSFPFTFGPGTKVEIK",2.1,0.33,,,0.06,,
"H4H2295S (antibody, human IgG4, V domains shown, human IgG4 Fc (H4H)) VH: EVQLVESGGGLVQAGGSLRLSCVASGFTFSSYAMSWVRQAPGKGLEWVSAISGSGGSTYSADSVKGRFTISRDNSKNTLYLQMNSLRAEDTAVYYCTKPSSYSSSNFYYGMDVWGQGTTVTVSS VL: DIQMTQSPSSVSASVGDRVTITCRASQGISSWLAWYQQKPGKAPKLLIYTASSLQSGVPSRFSGSGSRTDFTLTISSLQPEDFATYYCQQTNSLPLTFGPGTKVEIK",2.05,0.39,,,0.12,,
"H4H2294S (antibody, human IgG4, V domains shown, human IgG4 Fc (H4H)) VH: EVQLVESGGGLVQPGGSLRLSCAASGFTFSSYAMSWVRQAPGKGLEWVSVISGSGGSTYYADAVKGRFTISRDNSKHTLYLQMNSLRAEDTAVYYCTKPSSYSSSNFYYGMDVWGQGSTVTVSS VL: DIQLTQSPSSVSASVGDRVTITCRASQGISSWLAWYQQKPGKAPKLLIYAASSLQSGVPSRFSGSGSGTDFTLTISSLQPEDFATYYCQQTNSFPFPFGPGTKVDIK",2,0.29,95,0.952,0.05,0.04,0.03
"H4H2212N (antibody, human IgG4, V domains shown, human IgG4 Fc (H4H)) VH: EVQLLESGGGLVQPGGSLRLSCAASGFTFSSYAMSWVRQGPGKGLEWVSGISGSGGSTYNADSVKGRFTISRDNSKNTLYLQMNSLRAEDTAVYYCAKDSGTYWYYFDYWGQGILVTVSS VL: not shown",1.57,0.22,99,0.403,1.9,0,0
"H4H2355S (antibody, human IgG4, V domains shown, human IgG4 Fc (H4H)) VH: EVQLVESGGGLVQPGGSLRLSCAASGFTFSSYAMSWVRQVPGKGLEWVSAISGSGDNTYNAESVKGRFTISRDNSKNMLYLQMNSLRAEDTAVYYCAKTKFSSSLLFDYWGQGTLVTVSS VL: not shown",1.77,0.24,,,0,,
"H4H2236N3 (antibody, human IgG4, V domains shown, human IgG4 Fc (H4H)) VH: EVQLLESGGNLVQPGGSLRLSCAASGFTFSSYAMTWVRQAPGKGLEWVSTISGSGTSTYYADSVKGRFTISRDNSRDTVFLQMNSLRAEDTAVYYCSKPSALRFLHWLAMDVWGQGTLVTVSS VL: DIQMTQSPSSLSAFVGDRVTITCRASQDIRNYLDWFQQKPGKAPKSLIYAASNLQSGVPSRFGGSGSGTDFTLTINSLQPEDFVTYYCQQYNSYPPTFGGGTKVEIK",1.98,0.3,,,0.04,,
"H4H2342P (antibody, human IgG4, V domains shown, human IgG4 Fc (H4H)) VH: EVQLLESGGGLVQPGGSLRLSCAASGFTFSTYAMSWVRQAPGKGLEWVSAIRGNGVNTYYGDSMKGRFTISRDNSKDTLYLQMNSLRAEDTAVYYCAKNKWELLVFEYWGQGTLVTVSS VL: DIQMTQSPSSLSASVGDRVTITCRASQDISNYLAWYQQKPGKVPKLLIYAASTLQSGVPFRFSGSGSGTDFTLTISSLQPEDVATYYCQKYNSAPPFGPGTKVDIK",1.8,0.15,97,1.08,-0.01,0.06,0.07
